Reference: PMC2120550

Target: lysin from the pink abalone (H. corrugata) (Haliotis corrugata (pink abalone))
Experiment: cross-linking

Sequence of lysin from the pink abalone (H. corrugata) (natural protein) (P19448 19-155 limits assumed): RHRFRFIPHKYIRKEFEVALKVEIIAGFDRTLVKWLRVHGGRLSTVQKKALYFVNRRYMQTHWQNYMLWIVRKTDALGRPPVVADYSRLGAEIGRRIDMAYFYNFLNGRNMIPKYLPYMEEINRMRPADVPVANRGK

stoichiometry N: 2
Substance: lysin from the pink abalone (H. corrugata) (natural protein)
